PMC5319863 (Nature, 2016)

Tests used:
[1] = biological target: T1, human Izumo1_(22-254), wild type (human, UniProt Q8IYV9-1 22-254); assay: BLI
R160E Izumo1_(22-254) = R160E Izumo1_(22-254) (human, UniProt Q8IYV9-1 22-254, R160E); assay: BLI
E71A Izumo1_(22-254) = E71A Izumo1_(22-254) (human, UniProt Q8IYV9-1 22-254, E71A); assay: BLI
R160A Izumo1_(22-254) = R160A Izumo1_(22-254) (human, UniProt Q8IYV9-1 22-254, R160A); assay: BLI
H157A Izumo1_(22-254) = H157A Izumo1_(22-254) (human, UniProt Q8IYV9-1 22-254, H157A); assay: BLI
H157A Izumo1_(22-254), sequence (Q8IYV9 22-254 H157A): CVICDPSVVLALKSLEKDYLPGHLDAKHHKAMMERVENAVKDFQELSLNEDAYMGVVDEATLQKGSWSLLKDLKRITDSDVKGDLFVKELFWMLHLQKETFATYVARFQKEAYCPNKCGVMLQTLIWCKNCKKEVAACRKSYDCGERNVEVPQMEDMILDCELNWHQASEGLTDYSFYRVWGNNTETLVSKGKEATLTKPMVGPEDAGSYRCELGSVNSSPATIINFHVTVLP

Q130A Izumo1_(22-254) = Q130A Izumo1_(22-254) (human, UniProt Q8IYV9-1 22-254, Q130A); assay: BLI
Q130A Izumo1_(22-254), sequence (Q8IYV9 22-254 Q130A): as the sequence (Q8IYV9 22-254 H157A) above, with Q109A, A136H counted along it

D72A Izumo1_(22-254) = D72A Izumo1_(22-254) (human, UniProt Q8IYV9-1 22-254, D72A); assay: BLI
D72A Izumo1_(22-254), sequence (Q8IYV9 22-254 D72A): as the sequence (Q8IYV9 22-254 H157A) above, with D51A, A136H counted along it

E71K Izumo1_(22-254) = E71K Izumo1_(22-254) (human, UniProt Q8IYV9-1 22-254, E71K); assay: BLI
E71K Izumo1_(22-254), sequence (Q8IYV9 22-254 E71K): as the sequence (Q8IYV9 22-254 H157A) above, with E50K, A136H counted along it

[2] = biological target: T1, human Izumo1_(22-254), wild type; assay: SPR

E71A Izumo1_(22-254), sequence (Q8IYV9 22-254 E71A): as the sequence (Q8IYV9 22-254 H157A) above, with E50A, A136H counted along it
R160A Izumo1_(22-254), sequence (Q8IYV9 22-254 R160A): as the sequence (Q8IYV9 22-254 H157A) above, with A136H, R139A counted along it
T1 sequence (Q8IYV9 22-254): as the sequence (Q8IYV9 22-254 H157A) above, with A136H counted along it
R160E Izumo1_(22-254), sequence (Q8IYV9 22-254 R160E): as the sequence (Q8IYV9 22-254 H157A) above, with A136H, R139E counted along it

B1: E45A Juno_(20-228) (domain or fragment, human, UniProt A6ND01-1 20-228, looked up)
chain: GDELLNICMNAKHHKRVPSPEDKLYAECIPWKDNACCTLTTSWEAHLDVSPLYNFSLFHCGLLMPGCRKHFIQAICFYECSPNLGPWIQPVGSLGWEVAPSGQGERVVNVPLCQEDCEEWWEDCRMSYTCKSNWRGGWDWSQGKNRCPKGAQCLPFSHYFPTPADLCEKTWSNSFKASPERRNSGRCLQKWFEPAQGNPNVAVARLFAS
modifications: biotinylated with the EZ link sulfo-NHS-LC-biotinylation kit (BLI)
[1]
  Kd: 681 nM
  koff: 0.0247 s⁻¹
  kon: 37000 M⁻¹ s⁻¹

B2: E45K Juno_(20-228) (domain or fragment, human, UniProt A6ND01-1 20-228, looked up)
chain: GDELLNICMNAKHHKRVPSPEDKLYKECIPWKDNACCTLTTSWEAHLDVSPLYNFSLFHCGLLMPGCRKHFIQAICFYECSPNLGPWIQPVGSLGWEVAPSGQGERVVNVPLCQEDCEEWWEDCRMSYTCKSNWRGGWDWSQGKNRCPKGAQCLPFSHYFPTPADLCEKTWSNSFKASPERRNSGRCLQKWFEPAQGNPNVAVARLFAS
modifications: biotinylated with the EZ link sulfo-NHS-LC-biotinylation kit (in the BLI assay only)
[1]
  Kd: 2800 nM
  koff: 0.0624 s⁻¹
  kon: 23000 M⁻¹ s⁻¹

B3: K163A Juno_(20-228) (domain or fragment, human, UniProt A6ND01-1 20-228, looked up)
chain: GDELLNICMNAKHHKRVPSPEDKLYEECIPWKDNACCTLTTSWEAHLDVSPLYNFSLFHCGLLMPGCRKHFIQAICFYECSPNLGPWIQPVGSLGWEVAPSGQGERVVNVPLCQEDCEEWWEDCRMSYTCKSNWRGGWDWSQGANRCPKGAQCLPFSHYFPTPADLCEKTWSNSFKASPERRNSGRCLQKWFEPAQGNPNVAVARLFAS
modifications: biotinylated with the EZ link sulfo-NHS-LC-biotinylation kit (BLI)
[1]
  Kd: 97 nM
  koff: 0.0133 s⁻¹
  kon: 138000 M⁻¹ s⁻¹

B4: W62A Juno_(20-228) (domain or fragment, human, UniProt A6ND01-1 20-228, looked up)
chain: GDELLNICMNAKHHKRVPSPEDKLYEECIPWKDNACCTLTTSAEAHLDVSPLYNFSLFHCGLLMPGCRKHFIQAICFYECSPNLGPWIQPVGSLGWEVAPSGQGERVVNVPLCQEDCEEWWEDCRMSYTCKSNWRGGWDWSQGKNRCPKGAQCLPFSHYFPTPADLCEKTWSNSFKASPERRNSGRCLQKWFEPAQGNPNVAVARLFAS
modifications: biotinylated with the EZ link sulfo-NHS-LC-biotinylation kit (BLI)
[1]
  Kd: 361 nM
  koff: 0.0412 s⁻¹
  kon: 114000 M⁻¹ s⁻¹

B5: human Juno_(20-228), wild type (domain or fragment, UniProt A6ND01-1 20-228, looked up)
chain: GDELLNICMNAKHHKRVPSPEDKLYEECIPWKDNACCTLTTSWEAHLDVSPLYNFSLFHCGLLMPGCRKHFIQAICFYECSPNLGPWIQPVGSLGWEVAPSGQGERVVNVPLCQEDCEEWWEDCRMSYTCKSNWRGGWDWSQGKNRCPKGAQCLPFSHYFPTPADLCEKTWSNSFKASPERRNSGRCLQKWFEPAQGNPNVAVARLFAS
modifications: biotinylated with the EZ link sulfo-NHS-LC-biotinylation kit (in the BLI assay only)
R160E Izumo1_(22-254)
  Kd: 2200 nM
  koff: 0.0512 s⁻¹
  kon: 32000 M⁻¹ s⁻¹
E71A Izumo1_(22-254)
  Kd: 96 nM
  koff: 0.0137 s⁻¹
  kon: 143000 M⁻¹ s⁻¹
[1]
  Kd: 59 nM
  koff: 0.0067 s⁻¹
  kon: 115000 M⁻¹ s⁻¹
R160A Izumo1_(22-254)
  Kd: 730 nM
  koff: 0.0563 s⁻¹
  kon: 78000 M⁻¹ s⁻¹
H157A Izumo1_(22-254)
  Kd: 1800 nM
  koff: 0.079 s⁻¹
  kon: 51000 M⁻¹ s⁻¹
Q130A Izumo1_(22-254)
  Kd: 56 nM
  koff: 0.0068 s⁻¹
  kon: 127000 M⁻¹ s⁻¹
D72A Izumo1_(22-254)
  Kd: 71 nM
  koff: 0.0126 s⁻¹
  kon: 178000 M⁻¹ s⁻¹
E71K Izumo1_(22-254)
  Kd: 119 nM
  koff: 0.0195 s⁻¹
  kon: 165000 M⁻¹ s⁻¹
[2]
  Kd: 48 nM
  koff: 0.0194 s⁻¹
  kon: 420000 M⁻¹ s⁻¹

B6: K163E Juno_(20-228) (domain or fragment, human, UniProt A6ND01-1 20-228, looked up)
chain: GDELLNICMNAKHHKRVPSPEDKLYEECIPWKDNACCTLTTSWEAHLDVSPLYNFSLFHCGLLMPGCRKHFIQAICFYECSPNLGPWIQPVGSLGWEVAPSGQGERVVNVPLCQEDCEEWWEDCRMSYTCKSNWRGGWDWSQGENRCPKGAQCLPFSHYFPTPADLCEKTWSNSFKASPERRNSGRCLQKWFEPAQGNPNVAVARLFAS
modifications: biotinylated with the EZ link sulfo-NHS-LC-biotinylation kit (in the BLI assay only)
[1]
  Kd: 134 nM
  koff: 0.0242 s⁻¹
  kon: 181000 M⁻¹ s⁻¹

B7: L81A Juno_(20-228) (domain or fragment, human, UniProt A6ND01-1 20-228, looked up)
chain: GDELLNICMNAKHHKRVPSPEDKLYEECIPWKDNACCTLTTSWEAHLDVSPLYNFSLFHCGALMPGCRKHFIQAICFYECSPNLGPWIQPVGSLGWEVAPSGQGERVVNVPLCQEDCEEWWEDCRMSYTCKSNWRGGWDWSQGKNRCPKGAQCLPFSHYFPTPADLCEKTWSNSFKASPERRNSGRCLQKWFEPAQGNPNVAVARLFAS
modifications: biotinylated with the EZ link sulfo-NHS-LC-biotinylation kit (BLI)
[1]
  Kd: 9100 nM
  koff: 0.349 s⁻¹
  kon: 40000 M⁻¹ s⁻¹
